This note sets out measurements from publication PMC6868365 (Nucleic Acids Research, 2019).

In one assay the target is T1, DnaA Q208A (Escherichia coli, UniProt P03004 1-467, Q208A).
T1 sequence (looked up): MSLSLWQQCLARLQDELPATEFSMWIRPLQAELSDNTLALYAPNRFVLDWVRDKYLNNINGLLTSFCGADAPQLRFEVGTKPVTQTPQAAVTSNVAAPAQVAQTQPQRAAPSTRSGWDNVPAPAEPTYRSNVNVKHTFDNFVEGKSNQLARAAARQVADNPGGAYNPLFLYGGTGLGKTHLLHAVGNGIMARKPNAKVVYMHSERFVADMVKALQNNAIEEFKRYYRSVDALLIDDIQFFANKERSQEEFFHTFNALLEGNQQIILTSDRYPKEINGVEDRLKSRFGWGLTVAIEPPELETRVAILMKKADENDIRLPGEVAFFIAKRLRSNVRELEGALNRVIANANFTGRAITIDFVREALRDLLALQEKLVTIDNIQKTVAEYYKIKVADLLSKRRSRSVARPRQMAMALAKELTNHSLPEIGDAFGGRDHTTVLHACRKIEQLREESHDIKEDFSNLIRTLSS
The experiment in a line: native gel or EMSA.

A further assay has as its target T2, DnaA L290A (Escherichia coli, UniProt P03004 1-467, L290A).
T2 sequence (looked up): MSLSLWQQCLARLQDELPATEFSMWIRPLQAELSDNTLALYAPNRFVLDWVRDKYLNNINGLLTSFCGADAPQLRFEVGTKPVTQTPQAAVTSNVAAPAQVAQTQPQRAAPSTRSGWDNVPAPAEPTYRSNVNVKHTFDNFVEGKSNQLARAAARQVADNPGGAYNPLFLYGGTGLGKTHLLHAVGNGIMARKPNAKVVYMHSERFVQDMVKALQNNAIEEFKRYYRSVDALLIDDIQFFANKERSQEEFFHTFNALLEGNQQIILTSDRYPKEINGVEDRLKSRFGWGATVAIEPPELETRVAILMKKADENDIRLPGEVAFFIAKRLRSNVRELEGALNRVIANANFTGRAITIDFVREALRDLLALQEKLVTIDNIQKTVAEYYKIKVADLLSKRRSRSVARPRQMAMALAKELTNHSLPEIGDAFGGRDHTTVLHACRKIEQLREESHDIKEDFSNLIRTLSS
The experiment in a line: native gel or EMSA.

B1: DiaA (DnaA initiator-associating protein) (natural protein, Escherichia coli, UniProt P66817 1-196, looked up)
chain: MQERIKACFTESIQTQIAAAEALPDAISRAAMTLVQSLLNGNKILCCGNGTSAANAQHFAASMINRFETERPSLPAIALNTDNVVLTAIANDRLHDEVYAKQVRALGHAGDVLLAISTRGNSRDIVKAVEAAVTRDMTIVALTGYDGGELAGLLGPQDVEIRIPSHRSARIQEMHMLTVNCLCDLIDNTLFPHQDD
As to B1, the binding result with DnaA Q208A and with DnaA L290A was “binds” each time.
